Results published in publication PMC2171675.

Target: neural cell adhesion molecule (NCAM) (mouse (endogenous in brain)) (UniProt P13595)
Assay: co-IP

Chain of UniProt P13595 (P13595 20-1115): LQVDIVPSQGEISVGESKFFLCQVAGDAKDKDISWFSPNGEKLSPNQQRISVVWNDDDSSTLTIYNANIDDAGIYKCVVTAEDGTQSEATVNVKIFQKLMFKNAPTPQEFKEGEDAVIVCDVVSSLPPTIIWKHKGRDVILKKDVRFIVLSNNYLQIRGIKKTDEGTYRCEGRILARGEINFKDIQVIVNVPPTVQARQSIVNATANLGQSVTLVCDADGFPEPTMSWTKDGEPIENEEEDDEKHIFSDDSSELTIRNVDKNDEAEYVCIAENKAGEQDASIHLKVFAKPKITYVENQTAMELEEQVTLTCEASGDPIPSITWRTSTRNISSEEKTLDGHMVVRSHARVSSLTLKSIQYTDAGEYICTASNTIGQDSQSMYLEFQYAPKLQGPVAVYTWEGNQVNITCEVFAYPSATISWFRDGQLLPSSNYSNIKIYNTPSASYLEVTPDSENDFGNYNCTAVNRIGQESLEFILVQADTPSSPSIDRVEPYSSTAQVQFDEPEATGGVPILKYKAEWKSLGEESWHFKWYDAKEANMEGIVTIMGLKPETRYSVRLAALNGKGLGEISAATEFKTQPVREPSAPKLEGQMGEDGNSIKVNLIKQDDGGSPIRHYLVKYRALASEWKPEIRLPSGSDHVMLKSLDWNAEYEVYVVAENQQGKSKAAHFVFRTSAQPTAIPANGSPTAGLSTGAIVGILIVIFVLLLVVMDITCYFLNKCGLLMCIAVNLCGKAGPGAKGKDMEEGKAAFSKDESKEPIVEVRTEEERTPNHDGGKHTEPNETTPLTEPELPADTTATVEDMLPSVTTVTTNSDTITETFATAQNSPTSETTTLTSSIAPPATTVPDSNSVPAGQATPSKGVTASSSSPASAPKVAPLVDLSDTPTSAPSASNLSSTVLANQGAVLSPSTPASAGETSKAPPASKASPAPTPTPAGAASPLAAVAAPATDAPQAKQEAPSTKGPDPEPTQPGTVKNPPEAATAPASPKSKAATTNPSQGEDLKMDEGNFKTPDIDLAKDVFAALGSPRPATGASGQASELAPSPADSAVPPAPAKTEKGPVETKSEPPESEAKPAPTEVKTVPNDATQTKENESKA

In the case of “receptor-like protein tyrosine phosphatase RPTPα (natural protein)”, the reduction of the co-immunoprecipitated complex with 2 mM EDTA against with Ca2+ is reported as 60%.
